Results: patent US20240209022A1, “NOVEL PEPTIDE HAVING ANTI-INFLAMMATORY AND TISSUE REGENERATIVE ACTIONS” (KOREA RESEARCH INSTITUTE OF BIOSCIENCE AND BIOTECHNOLOGY, priority 2020, published 2024)

Tests used:
BTBR mice = assay: Social (sniffing) behavior in BTBR developmental disability model; assay type: in vivo; details: oral, after 4 weeks of administration; vs vehicle
Experimental: In order to verify the efficacy of the peptides of the present invention on developmental disability, BTBR mice (BTBR T^+ltpr3^tf/J (BTBR)), a developmental disability model, were used as an experimental animal.
To 3-week-old male BTBR mice, Amuc_1409 was orally administered by 5 μg daily 5 days a week, and PBS (phosphate-buffered saline) was administered to the control group. PEP001, PEP002, PEP003, PEP004, and PEP005 were each dissolved in PBS buffer at a concentration of 2.4 μM and orally administered to the mice by 150 μL per animal at the same time once a day 5 days a week, and novel tetrapeptides PEP006, PEP007, PEP008, PEP009, and PEP010 and novel tripeptides PEP011 and PEP013 were each dissolved in PBS buffer at 0.2 μg/150 μL and orally administered to the mice by 150 μL per animal at the same time once a day 5 days a week. After 4 weeks of administration, behavioral evaluation was performed by observing the social behavior of the mice. The mice were allowed to freely consume sterilized feed and water in a breeding facility in a specific pathogen free environment where the temperature was maintained at 22° C. to 24° C., and were bred while maintaining a 12-hour day/night cycle.

[1] = system: Human skin keratin cell line (HaCaT); assay: UVB photoaging gene expression in human skin keratinocytes; assay type: cell-based; details: 30 nM; UVB 10 mJ/cm^2; vs control group irradiated with UVB
Experimental: An experiment was conducted to examine the skin regeneration ability of the peptides of the present invention. Human skin keratin cell line (HaCaT) was cultured in DMEM medium containing 10% fetal bovine serum (FBS) and 1% penicillin-streptomycin at 37° C. and 5% CO2. When the cell density reached 80%, the cells were dispensed into a 6-well plate at 4×10^5 cells per well and cultured for 24 hours. After 24 hours, the cells were treated with Amuc 1409 at a concentration of 30 nM for 1 hour, washed twice with PBS (phosphate buffered saline) after 1 hour, and irradiated with ultraviolet light at 10 mJ/cm^2 using an ultraviolet (UVB) irradiation device (CL-1000 UV crosslinker; UVP, USA). After UV irradiation, the medium was replaced with serum-free medium, and the cells were immediately treated with Amuc_1409 for 8 hours.
In relation to skin wrinkles due to skin aging, in order to examine the expression of MMP-1 and MMP-3 genes, which are collagenase, and Col1a1 and Col3a1 genes, which are collagen synthesis enzymes, RNA was isolated from the cells in each well using Trizol (Invitrogen, USA) and quantified by nanodrop, and then cDNA was synthesized using 1 μg of each RNA. A mixture obtained by adding MMP-1, MMP-3, Col1a1 and Col3a1 primers and fluorescent dye AccuPower® 2× GreenStar™ qPCR Master Mix (BIONEER, Korea) to the synthesized cDNA was subjected to real-time polymerase chain reaction in a real-time PCR machine.

B1: Amuc_1409: SEQ ID NO: 15, functional fragment obtained by eliminating the leader sequence from SEQ ID NO: 14; protein derived from Akkermansia muciniphila (protein)
chain: IPESSVPAAAVSSIKGAYPNAGPIEWDSEMHGMERIYEAEFRINGFQFDVKIAPDGKIVRIKEEIAASSLPEAVRASVLKRYPGCRIKEAEKITEGELVRYKVEVADSRDDYDVLIAPDGNILHVDR
modifications: Amuc_1409_fragment
notes: protein derived from Akkermansia muciniphila
- social behavior (sniffing time and frequency) (BTBR mice): significantly increased or tended to increase
- expression of Col1a1 gene [1]: significantly increased
- expression of Col3a1 gene [1]: significantly increased
- expression of MMP-1 gene [1]: significantly decreased
- expression of MMP-3 gene [1]: significantly decreased
